These are literature values, as cited in patent US7951914B2, “Genetically modified cyclic-nucleotide controlled ion channels” (Forschungszentrum Julich GmbH, priority 2001, dated 2011).

The data set deals with T1, CNG channels comprising the α3 subunits from the epithelium of the nose (Bos taurus, UniProt Q03041).
T1 sequence (Q03041 1-663): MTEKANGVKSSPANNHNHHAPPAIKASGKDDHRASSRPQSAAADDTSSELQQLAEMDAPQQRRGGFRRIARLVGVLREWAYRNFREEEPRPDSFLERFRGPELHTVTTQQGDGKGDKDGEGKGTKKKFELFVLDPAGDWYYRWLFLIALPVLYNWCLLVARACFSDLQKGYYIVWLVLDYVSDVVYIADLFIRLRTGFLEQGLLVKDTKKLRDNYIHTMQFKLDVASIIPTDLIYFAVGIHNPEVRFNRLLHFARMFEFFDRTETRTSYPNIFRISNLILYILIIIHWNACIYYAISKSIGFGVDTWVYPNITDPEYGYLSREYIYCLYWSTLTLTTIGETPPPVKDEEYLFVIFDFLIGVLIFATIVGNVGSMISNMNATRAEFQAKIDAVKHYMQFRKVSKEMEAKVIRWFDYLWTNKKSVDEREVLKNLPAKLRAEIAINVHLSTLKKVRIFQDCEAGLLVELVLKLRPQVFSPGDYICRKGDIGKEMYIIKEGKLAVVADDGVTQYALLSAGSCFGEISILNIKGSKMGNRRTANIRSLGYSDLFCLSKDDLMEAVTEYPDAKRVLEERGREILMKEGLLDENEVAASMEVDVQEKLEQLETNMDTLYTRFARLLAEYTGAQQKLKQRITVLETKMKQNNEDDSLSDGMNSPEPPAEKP
The conditions noted are these: Dhallan 1990; Ludwig 1990; cited from earlier work.

B1: CNG channels comprising the α3 subunits: prior-art CNG channels of α3 subunits from the epithelium of the nose (protein, UniProt Q16280 1-664, looked up)
Cyclic nucleotide-gated …: MTEKTNGVKSSPANNHNHHAPPAIKANGKDDHRTSSRPHSAADDDTSSELQRLADVDAPQQGRSGFRRIVRLVGIIREWANKNFREEEPRPDSFLERFRGPELQTVTTQEGDGKGDKDGEDKGTKKKFELFVLDPAGDWYYCWLFVIAMPVLYNWCLLVARACFSDLQKGYYLVWLVLDYVSDVVYIADLFIRLRTGFLEQGLLVKDTKKLRDNYIHTLQFKLDVASIIPTDLIYFAVDIHSPEVRFNRLLHFARMFEFFDRTETRTNYPNIFRISNLVLYILVIIHWNACIYYAISKSIGFGVDTWVYPNITDPEYGYLAREYIYCLYWSTLTLTTIGETPPPVKDEEYLFVIFDFLIGVLIFATIVGNVGSMISNMNATRAEFQAKIDAVKHYMQFRKVSKGMEAKVIRWFDYLWTNKKTVDEREILKNLPAKLRAEIAINVHLSTLKKVRIFHDCEAGLLVELVLKLRPQVFSPGDYICRKGDIGKEMYIIKEGKLAVVADDGVTQYALLSAGSCFGEISILNIKGSKMGNRRTANIRSLGYSDLFCLSKDDLMEAVTEYPDAKKVLEERGREILMKEGLLDENEVATSMEVDVQEKLGQLETNMETLYTRFGRLLAEYTGAQQKLKQRITVLETKMKQNNEDDYLSDGMNSPELAAADEP
For the molecule B1, the “cGMP concentration that activates the channels” value was 2 µM.
